Data taken from US20230051715A1 (MABWELL THERAPEUTICS, published 2023).

Tests used:
[1] = biological target: T1, full-length human C1s (produced in house) (human, UniProt P09871 16-688); assay: BLI (Octet RED96e), antibody on AHC biosensor; C1s Species: Human; R^2 0.9983
T1 construct: Called full-length; Partly auto-cleaved at R422-I423 on blots; also called HuC1s; Hu C1s
T1 sequence: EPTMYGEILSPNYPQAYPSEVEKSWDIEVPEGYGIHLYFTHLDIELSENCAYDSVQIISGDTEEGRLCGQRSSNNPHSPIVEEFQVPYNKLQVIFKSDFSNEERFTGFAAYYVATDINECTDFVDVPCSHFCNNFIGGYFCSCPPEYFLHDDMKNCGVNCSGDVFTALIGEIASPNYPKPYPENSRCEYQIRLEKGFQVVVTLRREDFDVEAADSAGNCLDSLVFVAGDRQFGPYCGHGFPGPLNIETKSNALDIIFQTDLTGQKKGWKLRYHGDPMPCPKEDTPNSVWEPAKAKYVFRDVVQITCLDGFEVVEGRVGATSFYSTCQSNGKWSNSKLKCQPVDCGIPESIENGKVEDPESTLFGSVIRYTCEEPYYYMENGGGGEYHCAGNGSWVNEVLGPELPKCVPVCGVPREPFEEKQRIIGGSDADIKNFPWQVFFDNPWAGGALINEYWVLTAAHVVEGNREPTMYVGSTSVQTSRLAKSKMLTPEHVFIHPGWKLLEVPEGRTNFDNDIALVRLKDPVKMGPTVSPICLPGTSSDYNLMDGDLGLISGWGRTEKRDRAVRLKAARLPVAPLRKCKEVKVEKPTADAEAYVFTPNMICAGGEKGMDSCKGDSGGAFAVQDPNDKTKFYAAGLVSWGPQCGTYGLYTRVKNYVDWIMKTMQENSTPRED
Description: (§1) At last, analyte was dissociated in 1×KB for 360 sec. Data analysis was done using OCTET® Data Analysis HT Software (Sartorius AG).

[2] = biological target: T1, full-length human C1s (produced in …); assay: BLI (Octet RED96e), antibody on AHC biosensor; C1s Species: Human; R^2 0.9999
Description: as §1

[3] = biological target: T2, human C1s proenzyme (CompTech A103) (human, UniProt P09871 16-688); assay: BLI (Octet RED96e), antibody on AHC biosensor; HuC1s Form: Proenzyme; R^2 0.9990
T2 construct: also called proenzyme human C1s (native C1s)
T2 sequence (looked up): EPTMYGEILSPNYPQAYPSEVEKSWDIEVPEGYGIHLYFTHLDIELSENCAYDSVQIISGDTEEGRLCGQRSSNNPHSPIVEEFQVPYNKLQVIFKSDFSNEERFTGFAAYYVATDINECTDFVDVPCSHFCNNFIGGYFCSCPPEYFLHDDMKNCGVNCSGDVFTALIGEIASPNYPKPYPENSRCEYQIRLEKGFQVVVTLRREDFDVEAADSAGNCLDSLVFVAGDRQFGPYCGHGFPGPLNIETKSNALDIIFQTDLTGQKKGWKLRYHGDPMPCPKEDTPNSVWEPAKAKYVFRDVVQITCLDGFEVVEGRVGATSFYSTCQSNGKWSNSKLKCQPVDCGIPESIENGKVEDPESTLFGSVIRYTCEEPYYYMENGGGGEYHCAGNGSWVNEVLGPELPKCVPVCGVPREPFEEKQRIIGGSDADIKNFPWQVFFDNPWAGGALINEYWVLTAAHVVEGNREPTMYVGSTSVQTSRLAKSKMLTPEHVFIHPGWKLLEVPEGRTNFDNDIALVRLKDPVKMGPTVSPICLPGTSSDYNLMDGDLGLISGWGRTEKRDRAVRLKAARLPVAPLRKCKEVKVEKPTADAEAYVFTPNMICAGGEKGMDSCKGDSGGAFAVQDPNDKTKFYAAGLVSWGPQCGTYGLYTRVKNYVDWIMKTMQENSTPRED
Method: Bio-Layer Interferometry technology was used for anti-C1s antibody affinity measurement and binding kinetics determinations with OCTET® RED96e system (Sartorius AG). Pre-hydrated Anti-Human IgG Fc Capture (AHC) biosensors were first equilibrated in 1×KB (Kinetic Buffer, 1×PBS pH 7.4+0.02% Tween-20+0.1% BSA) for 120 sec for the first baseline, followed by loading with […] anti-C1s antibody (2-7, FIG. 3A; 2-8, FIG. 3B; hz2-7(H1L2), FIG. 3C; hz2-8(H1L2 G80A/T82A, FIG. 3D) onto AHC biosensors for 240 sec. Then, the second baseline signal was established for 120 sec before association with various concentrations of active human C1s (CompTech A104) for 240-360 sec. At last, analyte was dissociated in 1×KB for 360 sec. Anti-C1s antibodies 2-7 and 2-8 were also analyzed against human C1s proenzyme (CompTech A103) (data not shown). Data analysis was carried out using OCTET® Data Analysis HT Software (Sartorius AG). KD, kₒₙ, koff and R² values were calculated for each antibody and target combination, as summarized in FIG. 3E showing high affinity binding with KD values in the low nanomolar to picomolar range.

[4] = biological target: T3, cynomolgus monkey C1s (produced in house) (cynomolgus monkey, UniProt P09871 16-685 (human entry), limits assumed); assay: BLI (Octet RED96e), antibody on AHC biosensor; C1s Species: Cyno Monkey; R^2 0.9996
T3 construct: also called CyC1s
T3 chain: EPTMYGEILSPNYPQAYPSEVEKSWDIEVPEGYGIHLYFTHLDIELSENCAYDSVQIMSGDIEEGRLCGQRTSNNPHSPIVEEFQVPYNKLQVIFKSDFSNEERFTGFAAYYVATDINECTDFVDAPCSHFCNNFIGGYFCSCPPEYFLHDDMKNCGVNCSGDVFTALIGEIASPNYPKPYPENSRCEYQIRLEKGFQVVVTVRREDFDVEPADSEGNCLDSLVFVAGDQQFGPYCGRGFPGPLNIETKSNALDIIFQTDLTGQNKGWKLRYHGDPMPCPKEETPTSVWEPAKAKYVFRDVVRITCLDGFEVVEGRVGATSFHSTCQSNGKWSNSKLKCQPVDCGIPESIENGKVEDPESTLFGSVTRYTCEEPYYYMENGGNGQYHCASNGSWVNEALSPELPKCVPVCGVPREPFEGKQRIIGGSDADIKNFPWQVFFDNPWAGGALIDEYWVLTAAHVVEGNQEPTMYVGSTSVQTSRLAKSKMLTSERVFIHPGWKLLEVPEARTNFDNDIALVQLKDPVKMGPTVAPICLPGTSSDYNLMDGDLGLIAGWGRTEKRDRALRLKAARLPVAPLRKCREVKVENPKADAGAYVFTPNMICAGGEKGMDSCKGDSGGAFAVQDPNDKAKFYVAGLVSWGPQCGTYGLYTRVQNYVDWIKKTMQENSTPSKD
Description: as §1

B1: Anti-C1s antibody 2-7 (antibody, human IgG1, kappa, V domains shown)
VH: EVKLEESGGGLVPPGGSMKLSCVASGFTFSNYFMNWVRQSPEKGLEWVAEIRLKFTNYATHYAESVEGRFTISRDDSKSSVYLQMNNLRAEDTGIYYCTRDYGSRNGYFDYWGQGTTLTVSS
VL: DIVMTQAAPSVPVTPGESVSISCRSSKSLLHSNGNTFLYWFLQRPGQSPQLLIYRMSNLASGVPDRFSGSGSGTAFTLRVSRVEAEDVGIYYCMQHLEYPYTFGGGTKLEIKT
notes: the HC/LC entries may hold it too; also called clone 2-7
Kd [1]: 0.012 nM | koff [1]: 3.9e-05 s⁻¹ | kon [1]: 3.2e+06 M⁻¹ s⁻¹

B2: Anti-C1s antibody hz2-7(H1L2) (antibody, V domains shown)
VH: EVQLLESGGGLVQPGGSLRLSCAASGFTFSNYFMNWVRQAPGKGLEWVSEIRLKFTNYATHYADSVKGRFTISRDDSKSTLYLQMNSLRAEDTAVYYCTRDYGSRNGYFDYWGQGTLVTVSS
VL: DIVMTQTPLSLPVTPGEPASISCRSSKSLLHSNGNTFLYWFLQKPGQSPQLLIYRMSNLASGVPDRFSGSGSGTDFTLKISRVEAEDVGVYYCMQHLEYPYTFGGGTKLEIKR
notes: Humanized, human IgG1 / kappa; also called hz2-7(1L2)
Kd [2]: 0.12 nM | koff [2]: 4.6e-05 s⁻¹ | kon [2]: 390000 M⁻¹ s⁻¹

B3: Anti-C1s antibody 2-8 (antibody, V domains shown)
VH: EVQLQQSGAELVRPGALVKLSCKASGFNIKEYYMHWVKQRPEQGLEWIGWIDPENGDTIYDPKFQGKASITADTSSNTAYLQLSSLTSEDTAVYYCARSRLFFAYWGQGTLVTVSA
VL: DIVMTQSHKFMSTSVGDRVSFTCKASQDVRTAVDWYQQKPGQSPKLLIYSASYRYTGVPDRFTGTGSGTDFTFTISSVQAEDLAVYFCQQQYTTPYTFGGGTKLEIKT
notes: the HC/LC entries may hold it too; also called clone 2-8
Kd [3]: 0.49 nM | koff [3]: 0.00012 s⁻¹ | kon [3]: 250000 M⁻¹ s⁻¹ | Kd [4]: 1.1 nM | koff [4]: 0.00028 s⁻¹ | kon [4]: 260000 M⁻¹ s⁻¹
